This note sets out measurements from publication PMC6650474.

The assay has as its target Skeletal muscle actin (chicken) (UniProt P68139).

On to “Mouse utrophin residues 1-H416 with C-terminal biotin and FLAG tags (from UniProt E9Q6R7 1-416) (domain or fragment)”, for which the KS of the utrophin-based loaded in vitro motility assay (utrophin concentration that arrests motion), with PfMyoA K764E on the surface, 30 °C is 3.04 nM; the KS of the utrophin-based loaded in vitro motility assay (utrophin concentration that arrests motion), with PfMyoA S19A on the surface, 30 °C is 2.42 nM; the KS of the utrophin-based loaded in vitro motility assay (utrophin concentration that arrests motion), with PfMyoA WT on the surface, 30 °C came out at 1.4 nM; the KS of the utrophin-based loaded in vitro motility assay (utrophin concentration that arrests motion), with PfMyoA ∆N on the surface, 30 °C stood at 10.8 nM.
